Source: patent EP4721754A1 (Hangzhou Sciwind Biosciences Co., Ltd., dated 2026)
Numbered stars: 1 amine (or outer) side, 2 acyl side, 3 side chain; on linkers, the order of the positions; unused ones are H or OH. Square brackets hold non-standard residues; d marks the D form. Primed or numbered codes have the meaning given here. * marks the point of attachment. C20 diacid = O=C(O)CCCCCCCCCCCCCCCCCCC(=O)*; C18 diacid = O=C(O)CCCCCCCCCCCCCCCCC(=O)*; γGlu = O=C(O)[C@H](CCC(=O)[*:2])N[*:1]; Inp′ = not defined here; AEEA = NCCOCCOCC(=O)O

T1: amylin receptor (hAMY3R) (human, UniProt P30988 25-474; O60896 24-148)
T1 sequence (looked up) 1: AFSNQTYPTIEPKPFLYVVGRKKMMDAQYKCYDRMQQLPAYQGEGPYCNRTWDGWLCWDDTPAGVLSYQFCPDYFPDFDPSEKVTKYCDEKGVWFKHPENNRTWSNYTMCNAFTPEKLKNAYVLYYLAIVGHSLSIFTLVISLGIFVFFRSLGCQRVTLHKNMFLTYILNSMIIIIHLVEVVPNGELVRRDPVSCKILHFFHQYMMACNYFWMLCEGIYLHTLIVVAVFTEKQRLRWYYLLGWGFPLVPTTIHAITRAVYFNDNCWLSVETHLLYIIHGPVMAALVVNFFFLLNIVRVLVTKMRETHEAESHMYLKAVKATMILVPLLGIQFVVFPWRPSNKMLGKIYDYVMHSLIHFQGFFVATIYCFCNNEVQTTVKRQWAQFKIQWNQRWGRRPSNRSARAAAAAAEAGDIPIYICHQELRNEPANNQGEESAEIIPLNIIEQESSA
T1 sequence (looked up) 2: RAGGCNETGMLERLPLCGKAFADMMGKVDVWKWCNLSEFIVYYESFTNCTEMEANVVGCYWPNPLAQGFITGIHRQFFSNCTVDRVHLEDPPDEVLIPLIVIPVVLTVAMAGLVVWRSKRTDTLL

T2: calcitonin receptor (hCTR) (human, UniProt P30988 25-474)
T2 sequence (looked up): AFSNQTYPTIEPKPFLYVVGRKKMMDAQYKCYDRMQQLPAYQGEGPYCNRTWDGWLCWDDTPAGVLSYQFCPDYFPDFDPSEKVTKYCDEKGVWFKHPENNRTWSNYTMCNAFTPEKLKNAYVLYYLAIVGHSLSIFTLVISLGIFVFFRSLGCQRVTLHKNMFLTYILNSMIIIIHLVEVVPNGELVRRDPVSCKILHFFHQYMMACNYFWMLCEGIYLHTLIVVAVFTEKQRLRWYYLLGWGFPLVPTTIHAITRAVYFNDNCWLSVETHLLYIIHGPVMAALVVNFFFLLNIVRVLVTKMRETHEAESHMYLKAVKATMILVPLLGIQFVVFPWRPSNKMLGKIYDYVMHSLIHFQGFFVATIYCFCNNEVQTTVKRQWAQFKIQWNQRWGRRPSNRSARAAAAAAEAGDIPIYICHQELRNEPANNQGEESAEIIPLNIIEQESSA


Biological target: T1, amylin receptor (hAMY3R)
Assay: cell-based or functional assay

Binder | fold increase of agonistic activity against the amylin receptor, compared with M17 [fold]
{C18 diacid-Inp′-AEEA-AEEA}-ASQLSTAVLGRLSDELHRLQDYPRTDVGSGSP-NH2 [M30] | ~70

Biological target: T1, amylin receptor (hAMY3R)
Assay: cell-based or functional assay
Remark: another data set of the same source

Binder | EC50, CRE-luciferase reporter in amylin receptor/CRE-luc CHO cells, 24 h [pM]
{C18 diacid-Inp′}-ASQLSTAVLGRLSDELHRLQDYPRTDVGSGSP-NH2 [M17] | 63
{C20 diacid-γGlu}-ASQLSTAVLGRLSDELHRLQDYPRTDVGSGSP-NH2 (ends and bridges not checked) [M6] | 17
ASQLSTAVLGRLSDELHRLQDYPRTDVGSGSP (not fully specified; N terminus: C20 diacid + Inp) [M16] | 82

The remaining lines, values ahead:

EC50, CRE-luciferase reporter in amylin receptor/CRE-luc CHO cells, 24 h [pM] | Binder
1 | {C18 diacid-Inp′-AEEA-AEEA}-ASQLSTAVLGRLSDELHRLQDYPRTDVGSGSP-NH2 [M30]
7 | {C18 diacid}-E[AEEA][AEEA]ASQLSTAVLGRLSDELHRLQDYPRTDVGSGSP-NH2 [M24]

Biological target: T2, calcitonin receptor (hCTR)
Assay: cell-based or functional assay

Binder | EC50, CRE-luciferase reporter in calcitonin receptor/CRE-luc CHO cells, 24 h [pM]
{C18 diacid-Inp′}-ASQLSTAVLGRLSDELHRLQDYPRTDVGSGSP-NH2 [M17] | 259
{C20 diacid-γGlu}-ASQLSTAVLGRLSDELHRLQDYPRTDVGSGSP-NH2 (ends and bridges not checked) [M6] | 28
{C18 diacid}-E[AEEA][AEEA]ASQLSTAVLGRLSDELHRLQDYPRTDVGSGSP-NH2 [M24] | 81
ASQLSTAVLGRLSDELHRLQDYPRTDVGSGSP (not fully specified; N terminus: C20 diacid + Inp) [M16] | 376

Biological target: T1, amylin receptor (hAMY3R)
Assay: cell-based or functional assay
Remark: another data set of the same source

Binder | Fold change in activity against hAMY3R (benchmark D1) [fold]
{C18 diacid-Inp′}-ASQLSTAVLGRLSDELHRLQDYPRTDVGSGSP-NH2 [M17] | 0.571
{C20 diacid-γGlu}-ASQLSTAVLGRLSDELHRLQDYPRTDVGSGSP-NH2 (ends and bridges not checked) [M6] | 2.12
ASQLSTAVLGRLSDELHRLQDYPRTDVGSGSP (not fully specified; N terminus: C20 diacid + Inp) [M16] | 0.439

Results, then the binder that gave them:

Fold change in activity against hAMY3R (benchmark D1) [fold] | Binder
36 | {C18 diacid-Inp′-AEEA-AEEA}-ASQLSTAVLGRLSDELHRLQDYPRTDVGSGSP-NH2 [M30]
5.14 | {C18 diacid}-E[AEEA][AEEA]ASQLSTAVLGRLSDELHRLQDYPRTDVGSGSP-NH2 [M24]

Biological target: T2, calcitonin receptor (hCTR)
Assay: cell-based or functional assay
Remark: another data set of the same source

Binder | Fold change in activity against hCTR (benchmark D1) [fold] | hCTR EC50, CRE-luciferase reporter cells [pM]
{C18 diacid-Inp′}-ASQLSTAVLGRLSDELHRLQDYPRTDVGSGSP-NH2 [M17] | 0.332 | –
{C20 diacid-γGlu}-ASQLSTAVLGRLSDELHRLQDYPRTDVGSGSP-NH2 (ends and bridges not checked) [M6] | 3.07 | –
ASQLSTAVLGRLSDELHRLQDYPRTDVGSGSP (not fully specified; N terminus: C20 diacid + Inp) [M16] | 0.229 | –

Second part, the binder after the results:

Fold change in activity against hCTR (benchmark D1) [fold] | hCTR EC50, CRE-luciferase reporter cells [pM] | Binder
0.848 | 101 | {C18 diacid-Inp′-AEEA-AEEA}-ASQLSTAVLGRLSDELHRLQDYPRTDVGSGSP-NH2 [M30]
1.06 | – | {C18 diacid}-E[AEEA][AEEA]ASQLSTAVLGRLSDELHRLQDYPRTDVGSGSP-NH2 [M24]
